± gives the uncertainty stated by the source.
Assay: self-splicing fitness, log relative to wild type (ln ratio); higher = more splicing; Tetrahymena group I intron in knt gene, E. coli kanamycin selection, DiMSum; sequences stand for … in CUCUCU…GGAGGGAAAAGUUAUCAGGCAUGCACCUGGUAGCUAGUCUUUAAACCAAUAGAUUGCAUCGGUUUAAAAGGCAAGACCGUCAAAUUGCGGGAAAGGGGUCAACAGCCGUUCAGUACCAAGUCUCAGGGGAAACUUUGAGAUGGCCUUGCAAAGGGUAUGGUAAUAAGCUGACGGACAUGGUCCUAACCACGCAGCCAAGUCCUAAGUCAACAGAUCUUCUGUUGAUAUGGAUGCAGUUCACAGACUAAAUGUCGGUCGGGGAAGAUGUAUUCUUCUCAUAAGAUAUAGUCGGACCUCUCCUUAAUGGGAGCUAGCGGAUGAAGUGAUGCAACACUGGAGCCGCUGGGAACUAAUUUGUAUGCGAAAGUAUAUUGAUUAGUUUUGGAGUACUCGUGGUCG
Procedure, shortened: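 Pooled colonies went to amplicon sequencing on an Illumina HiSeq 2500 after six replicate transformations. The plates were LB agar with 100 μg/mL carbenicillin, 50 μM IPTG and 0.2% rhamnose, with or without 25 μg/mL kanamycin, incubated overnight at 37°C or 30°C. The E. coli BL21(DE3) library had all eight P1ex-region intron nucleotides randomised, the intron placed in the knt kanamycin-resistance gene on pET-22b(+). DiMSum fitness is the error-weighted combination of replicate fold changes, kanamycin against none, normalised to wild type.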

Sequence	self-splicing fitness (ln) (30 °C)	self-splicing fitness (ln) (37 °C)
AGUUAGCAAUAUUACGAUAC	-2.6 ± 0.25	-1.51 ± 0.24
AGUUAGCAAUAUUACGAUAG	-3.19 ± 0.29	-1.77 ± 0.29
AGUUAGCAAUAUUACGAUCA	-0.843 ± 0.13	0.619 ± 0.12
AGUUAGCAAUAUUACGCCCC	-0.473 ± 0.23	
AGUUAGCAAUAUUACGCCCG	-1.52 ± 0.44	0.364 ± 0.45
AGUUAGCAAUAUUACGCGCA	-0.182 ± 0.14	0.341 ± 0.21
AGUUAGCAAUAUUACGCGGU	-2.58 ± 0.14	-1.93 ± 0.18
AGUUAGCAAUAUUACGCUAA	-3.11 ± 0.43	-2.29 ± 0.41
AGUUAGCAAUAUUACGGAAC		-2.72 ± 0.38
AGUUAGCAAUAUUACGGCAU	-0.297 ± 0.063	-0.161 ± 0.085
AGUUAGCAAUAUUACGGCCG	-0.855 ± 0.21	-0.628 ± 0.3
AGUUAGCAAUAUUACGGCUG	-0.983 ± 0.085	-0.309 ± 0.11
AGUUAGCAAUAUUACGGGAU	-3.18 ± 0.26	-1.46 ± 0.22
AGUUAGCAAUAUUACGGUUG	-3.09 ± 0.24	-1.99 ± 0.22
AGUUAGCAAUAUUACGUACA	-1.06 ± 0.09	-0.266 ± 0.12
AGUUAGCAAUAUUACGUAGA	-3.12 ± 0.14	-1.59 ± 0.14
AGUUAGCAAUAUUACGUAUA	-3.01 ± 0.19	-1.57 ± 0.16
AGUUAGCAAUAUUACGUCAC		-0.825 ± 0.31
AGUUAGCAAUAUUACGUCUA	-0.594 ± 0.12	-0.0617 ± 0.1
AGUUAGCAAUAUUACGUGAA	-2.78 ± 0.15	-2.31 ± 0.2
AGUUAGCAAUAUUACGUGAG	-1.53 ± 0.12	-1.86 ± 0.14
AGUUAGCAAUAUUACGUUAA	-3.56 ± 0.38	-1.48 ± 0.26

Sequence	self-splicing fitness (ln) (30 °C)	self-splicing fitness (ln) (37 °C)
AGUUAGCAAUAUUACGUUAG	-3.45 ± 0.23	-2.72 ± 0.3
AGUUAGCAAUAUUACGUUGG	-2.67 ± 0.19	-2.3 ± 0.21
AUAAAGCAAUAUUACGAAUU	-1.23 ± 0.064	-0.731 ± 0.089
AUAAAGCAAUAUUACGACAU	0.424 ± 0.012	0.344 ± 0.032
AUAAAGCAAUAUUACGACUA	0.277 ± 0.083	0.129 ± 0.1
AUAAAGCAAUAUUACGACUU	0.0576 ± 0.088	0.686 ± 0.13
AUAAAGCAAUAUUACGAGGC	-3.29 ± 0.17	-2.7 ± 0.32
AUAAAGCAAUAUUACGAGUG	-2.03 ± 0.1	-1.16 ± 0.12
AUAAAGCAAUAUUACGAUGA	-0.326 ± 0.083	0.153 ± 0.12
AUAAAGCAAUAUUACGAUUU	0.496 ± 0.082	0.827 ± 0.1
AUAAAGCAAUAUUACGCCAG	-0.993 ± 0.12	-0.785 ± 0.16
AUAAAGCAAUAUUACGCCAU	-0.694 ± 0.095	-0.176 ± 0.14
AUAAAGCAAUAUUACGCCUU	-0.274 ± 0.094	0.0912 ± 0.12
AUAAAGCAAUAUUACGCUUG	-0.77 ± 0.082	-0.368 ± 0.11
AUAAAGCAAUAUUACGGAAC	-2.45 ± 0.26	-0.934 ± 0.19
AUAAAGCAAUAUUACGGAGC	-2.79 ± 0.2	-2.21 ± 0.22
AUAAAGCAAUAUUACGGCAG	-0.699 ± 0.092	-0.0772 ± 0.13
AUAAAGCAAUAUUACGGCGA	0.447 ± 0.1	1.03 ± 0.14
AUAAAGCAAUAUUACGGGAC	-1.72 ± 0.1	-2.4 ± 0.16
AUAAAGCAAUAUUACGGGAU	-0.81 ± 0.055	-0.671 ± 0.083
AUAAAGCAAUAUUACGGGUG	-1.03 ± 0.082	-0.259 ± 0.094

Reference: the supplement of paper PMC7877785
